Five molecules from patent publication US20140274782A1 (Stanford University, published 2014) can be followed below.

In test [1] the target is recombinant H3 dimethylated at lysine 9 by G9a SET domain (UniProt P68431 2-136). Put plainly: Far Western on in vitro methylation reactions.
In test [2] the target is T1, p53 mono-methylated at lysine 382 by SET8 (UniProt P04637 1-393, monomethyl-lysine at K382).
T1 construct: also called p53K382me1; monomethylated p53
The test can be described thus: Far Western on in vitro methylation reactions.

Test [3] deals with T2, 3× Flag-SIRT1 methylated by G9a at lysine 622 (293T cells) (UniProt Q96EB6 1-747, methyl-lysine at K622 (state not stated)).
T2 construct: also called methylated SIRT1; not shown: 3× Flag tag of p3×FLAG-CMV-7
T2 sequence (looked up): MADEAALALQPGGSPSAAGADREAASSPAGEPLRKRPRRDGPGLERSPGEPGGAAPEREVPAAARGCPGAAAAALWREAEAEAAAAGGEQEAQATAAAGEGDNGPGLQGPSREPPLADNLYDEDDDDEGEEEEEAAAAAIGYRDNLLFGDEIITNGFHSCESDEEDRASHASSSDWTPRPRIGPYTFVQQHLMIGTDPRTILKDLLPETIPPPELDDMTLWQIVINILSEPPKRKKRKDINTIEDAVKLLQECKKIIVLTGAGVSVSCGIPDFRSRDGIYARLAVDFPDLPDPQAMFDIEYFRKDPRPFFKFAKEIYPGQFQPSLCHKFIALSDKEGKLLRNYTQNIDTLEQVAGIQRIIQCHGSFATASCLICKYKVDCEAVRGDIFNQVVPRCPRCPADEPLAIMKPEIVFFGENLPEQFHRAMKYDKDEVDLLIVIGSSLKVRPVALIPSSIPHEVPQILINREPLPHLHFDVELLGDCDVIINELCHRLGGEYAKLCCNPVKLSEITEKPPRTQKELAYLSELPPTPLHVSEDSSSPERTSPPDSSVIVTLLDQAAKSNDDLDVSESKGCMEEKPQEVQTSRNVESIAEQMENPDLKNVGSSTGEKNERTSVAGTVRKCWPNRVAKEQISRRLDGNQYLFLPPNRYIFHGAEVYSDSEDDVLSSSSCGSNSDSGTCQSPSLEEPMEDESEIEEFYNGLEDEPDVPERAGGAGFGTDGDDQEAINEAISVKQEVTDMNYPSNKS
Put plainly: GSH-Sepharose pull-down from 293T nuclear extract, anti-Flag Western blot.

Test [4] concerns the target H3 from HeLa nuclear extract (UniProt P68431 2-136). Put plainly: GSH-Sepharose pull-down from HeLa nuclear extract, Western blot.
The target in test [5] is T3, RelA mono-methylated at lysine 310 by SETD6 (293T cells) (UniProt Q04206 1-551, monomethyl-lysine at K310).
T3 construct: also called RelAK310me1; methylated RelA
Put plainly: GSH-Sepharose pull-down from 293T nuclear extract, Western blot.

Test [6] concerns the target T4, biotinylated mono-methylated H4K20 peptide (H4 amino acids 1-23) (UniProt P62805 2-24, monomethyl-lysine at K20; biotinylated).
T4 construct: range 1-23; also called H4K20me1
The test can be described thus: peptide pull-down, Western blot.

The target in test [7] is T5, biotinylated di-methylated H4K20 peptide (H4 amino acids 1-23) (UniProt P62805 2-24, dimethyl-lysine at K20; biotinylated).
T5 construct: range 1-23; also called H4K20me2
Put plainly: peptide pull-down, Western blot.

For test [8], the target named is T6, recombinant p53 carrying K382R substitution (UniProt P04637 1-393).
T6 construct: also called p53K382R
Put plainly: Far Western on in vitro methylation reactions.

Another test concerns the target T7, 3× Flag-SIRT1K622R (UniProt Q96EB6 1-747).
T7 construct: not shown: 3× Flag tag of p3×FLAG-CMV-7
T7 sequence (looked up): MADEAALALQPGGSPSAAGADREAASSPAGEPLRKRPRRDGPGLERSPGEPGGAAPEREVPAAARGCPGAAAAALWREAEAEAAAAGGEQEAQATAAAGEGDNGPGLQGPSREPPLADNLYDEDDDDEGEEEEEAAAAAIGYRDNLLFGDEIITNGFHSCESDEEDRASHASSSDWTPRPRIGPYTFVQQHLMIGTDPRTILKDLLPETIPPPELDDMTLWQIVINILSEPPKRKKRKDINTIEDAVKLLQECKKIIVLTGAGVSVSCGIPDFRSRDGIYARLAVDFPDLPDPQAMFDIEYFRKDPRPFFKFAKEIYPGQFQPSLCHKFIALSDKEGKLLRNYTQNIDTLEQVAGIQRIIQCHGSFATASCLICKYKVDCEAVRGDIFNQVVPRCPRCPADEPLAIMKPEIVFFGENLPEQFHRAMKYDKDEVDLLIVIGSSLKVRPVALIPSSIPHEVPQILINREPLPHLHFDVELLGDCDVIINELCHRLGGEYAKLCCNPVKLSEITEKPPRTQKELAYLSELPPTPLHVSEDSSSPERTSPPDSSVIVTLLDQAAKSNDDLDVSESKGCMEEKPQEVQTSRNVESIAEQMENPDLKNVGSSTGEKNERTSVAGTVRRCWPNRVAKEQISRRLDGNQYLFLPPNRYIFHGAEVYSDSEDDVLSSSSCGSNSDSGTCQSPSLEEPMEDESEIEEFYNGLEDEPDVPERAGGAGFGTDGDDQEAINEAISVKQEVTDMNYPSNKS
Put plainly: GSH-Sepharose pull-down from 293T nuclear extract, anti-Flag Western blot.

Test [9] has as its target T8, RelA carrying K310R substitution (UniProt Q04206 1-551).
T8 construct: also called RelAK310R
The test can be described thus: GSH-Sepharose pull-down from 293T nuclear extract, Western blot.

Test [10] concerns the target T1, p53 mono-methylated at lysine 382 by …. Put plainly: Far Western, α-Flag detection (FIG. 9C).
The target in test [11] is T4, biotinylated mono-methylated H4K20 …. Put plainly: peptide pull-down, α-Flag Western blot.
Test [12] addresses T5, biotinylated di-methylated H4K20 …. The test can be described thus: peptide pull-down, α-Flag Western blot.

B1: GST-tagged 3×MBTD355N (methyllysine-binding mutant) (designed binder)
chain: EEWSSSQPATGEKKECWSWESYLEEQKAITAPVSLFQDSQAVTHNKNGFKLGMKLEGIDPQHPSMYFILTVAEVCGYRLRLHFDGYSECHDFWVNANSPDIHPAGWFEKTGHKLQPPKGYKEEEFSWSQYLRSTRAQAAPKHLFVSQSHSPPPLGFQVGMKLEAVNRMNPSLVCVASVTDVVDSRFLVHFDNWDDTYDYWCDPSSPYIHPVGWCQKQGKPLTPPQDYPDPDNFCWEKYLEETGASAVPTWAFKVRPPHSFLVNMKLEAVDRRNPALIRVASVEDVEDHRIKIHFDGWSHGYDFWIDADHPDIHPAGWCSKTGHPLQPPLGPREPSSASPGG
notes: Negative control; also called GST-3×MBTD355N; point-mutant; not shown: GST tag and PreScission linker of the pGEX6P1 vector at the N end
On to B1, for which the binding result in test [1] was “no binding”; in [2], “no binding”; in test [3], “no binding”; in [4], “no binding”; in test [5], “no binding”; in test [6], “no binding (tested: 1 µg protein and 1 µg peptide)”. In addition, in [7], the binding result is “no binding (tested: 1 µg protein and 1 µg peptide)”.

B2: GST-tagged 3×MBT (three MBT repeats of L3MBTL1, amino acids 190-530, expressed as a GST fusion) (designed binder, not shown: a dimerising Fc or GST)
chain: EEWSSSQPATGEKKECWSWESYLEEQKAITAPVSLFQDSQAVTHNKNGFKLGMKLEGIDPQHPSMYFILTVAEVCGYRLRLHFDGYSECHDFWVNANSPDIHPAGWFEKTGHKLQPPKGYKEEEFSWSQYLRSTRAQAAPKHLFVSQSHSPPPLGFQVGMKLEAVDRMNPSLVCVASVTDVVDSRFLVHFDNWDDTYDYWCDPSSPYIHPVGWCQKQGKPLTPPQDYPDPDNFCWEKYLEETGASAVPTWAFKVRPPHSFLVNMKLEAVDRRNPALIRVASVEDVEDHRIKIHFDGWSHGYDFWIDADHPDIHPAGWCSKTGHPLQPPLGPREPSSASPGG
notes: Used in solution (peptide pull-down, Far Western, peptide array) and coupled to GSH-Sepharose (protein pull-down); also called GST-3×MBT; 3xMBT
Consider B2, for which the binding result (in test [8]; in the test with 3× Flag-SIRT1K622R; in test [9]) was “no binding” in each case.

B3: GST-3× Flag-3×MBTD355N (designed binder, not shown: a dimerising Fc or GST; small tags and cut ends)
chain: EEWSSSQPATGEKKECWSWESYLEEQKAITAPVSLFQDSQAVTHNKNGFKLGMKLEGIDPQHPSMYFILTVAEVCGYRLRLHFDGYSECHDFWVNANSPDIHPAGWFEKTGHKLQPPKGYKEEEFSWSQYLRSTRAQAAPKHLFVSQSHSPPPLGFQVGMKLEAVNRMNPSLVCVASVTDVVDSRFLVHFDNWDDTYDYWCDPSSPYIHPVGWCQKQGKPLTPPQDYPDPDNFCWEKYLEETGASAVPTWAFKVRPPHSFLVNMKLEAVDRRNPALIRVASVEDVEDHRIKIHFDGWSHGYDFWIDADHPDIHPAGWCSKTGHPLQPPLGPREPSSASPGG
As for B3, the binding result in test [10] is listed as “no binding”.

B4: 3×MBTD355N-Flag (C-terminally Flag-tagged 3×MBTD355N) (designed binder, not shown: small tags and cut ends)
chain: EEWSSSQPATGEKKECWSWESYLEEQKAITAPVSLFQDSQAVTHNKNGFKLGMKLEGIDPQHPSMYFILTVAEVCGYRLRLHFDGYSECHDFWVNANSPDIHPAGWFEKTGHKLQPPKGYKEEEFSWSQYLRSTRAQAAPKHLFVSQSHSPPPLGFQVGMKLEAVNRMNPSLVCVASVTDVVDSRFLVHFDNWDDTYDYWCDPSSPYIHPVGWCQKQGKPLTPPQDYPDPDNFCWEKYLEETGASAVPTWAFKVRPPHSFLVNMKLEAVDRRNPALIRVASVEDVEDHRIKIHFDGWSHGYDFWIDADHPDIHPAGWCSKTGHPLQPPLGPREPSSASPGG
Take B4: the binding result in test [11] and in [12] was “no binding” in each case.

B5: 3× Flag-3×MBTD355N (designed binder)
chain: EEWSSSQPATGEKKECWSWESYLEEQKAITAPVSLFQDSQAVTHNKNGFKLGMKLEGIDPQHPSMYFILTVAEVCGYRLRLHFDGYSECHDFWVNANSPDIHPAGWFEKTGHKLQPPKGYKEEEFSWSQYLRSTRAQAAPKHLFVSQSHSPPPLGFQVGMKLEAVNRMNPSLVCVASVTDVVDSRFLVHFDNWDDTYDYWCDPSSPYIHPVGWCQKQGKPLTPPQDYPDPDNFCWEKYLEETGASAVPTWAFKVRPPHSFLVNMKLEAVDRRNPALIRVASVEDVEDHRIKIHFDGWSHGYDFWIDADHPDIHPAGWCSKTGHPLQPPLGPREPSSASPGG
notes: also called N-terminally Flag-tagged 3×MBTD355N; not shown: made by PreScission cleavage of the GST version
For the molecule B5, the binding result in [11], in [12] and in test [10] was “no binding” each time.
